Patent US20190144537A1

Molecular target: cynoNotch3 monomer (cyno)
Test: binding to cynoNotch3 monomer at 25° C., protocol similar to that for hNotch3 (method not named)

Row | Kd [nM] | Binder
1 | 5.35 | 28042.1 antibody (antibody, human IgG1, kappa, V domains shown) VH: EVQLLESGGGLVQPGGSLRLSCAASGFTFSDYMMSWVRQAPGKGLEWVSWIRSSGGTTLYADSVKGRFTISRDNSKNTLYLQMNSLRAEDTATYYCARVGGGTTGYAFDIWGQGTMVTVSS VL: DIQMTQSPSSLSASVGDRVTITCRASQSISSYLNWYQQKPGKAPKLLIYGASSLQSGVPSRVSGTGSGTDFTLTISSLQPEDFATYYCQQSYSPSFTFGPGTKVDFER
2 | 214 | 28042.2 antibody (antibody, human IgG1, kappa, V domains shown) VH: EVQLLESGGGLVQPGGSLRLSCAASGFTFSDYMMSWVRQAPGKGLEWVSWIRSSGGTTLYADSVKGRFTISRDNSKNTLYLQMNSLRAEDTATYYCARVGGGTTGYAFDIWGQGTMVTVSS VL: DIQMTQSPSSLSASVGDRVTITCRASQSISNYLNWYQQKPGKAPKLLIYAASSLQSGVPSRVSGTGSGTDFTLTISSLQPEDFATYYCQQSYSPSFTFGPGTKVDFER
